In experiment [1] the target is T1, E. faecalis Fsr QS circuit (gelE promoter) (Enterococcus faecalis, UniProt A0ACD6TCR9). Type of experiment: cell-based, E. faecalis TX5274. To be noted: EC50 ratio relative to GBAP; for Fold Change relative to GBAP, loss in potency: parentheses = loss.
For experiment [2], the target named is T1, E. faecalis Fsr QS circuit (gelE promoter). Particulars: cited from earlier work; for pEC50: read-out: EC50 [95% CI], previously published analog shown for comparison.
Experiment [3] relates to wild type E. faecalis cells (strain TX4002). Description: Biofilm formation phenotypic assay. Type of experiment: cell-based. To be noted: exogenous GBAP added to wild type TX4002 cells.

pEC50: −log10 of the molar value.

For the substance “Ac-GBAP-Des(Q1N2) (SPNIFGQWM; not fully specified; N-acetyl tail; lactone macrocycle) [Peptide 10]”, the “Fold Change relative to GBAP, improvement in potency” value in experiment [1] (no parentheses = improvement) turned out to be 1.1 fold. Besides, the pEC50 in experiment [2] is 9.00.

As for “GBAP (SPNIFGQWM; not fully specified; N-terminal QN tail; lactone macrocycle) [Peptide 1, reference compound]”, in experiment [3], the “increase in the amount of biofilm formation” value was 30–50%. For the same substance, in experiment [2], the pEC50 is 8.94.

On to “GBAP-Des(Q1N2) lactam (SPNIFGQWM; head-to-tail lactam cyclization) [Peptide 11]”, for which the “Fold Change relative to GBAP, loss in potency” value in experiment [1] was “(> 10,000) fold”. In experiment [2], the “agonist activity” value was “completely inactive” and the pEC50 is < 5.00.

Turning to GBAP-G8A [Peptide 2], the “Fold Change relative to GBAP, loss in potency” value in experiment [1] was “(> 10,000) fold”. In experiment [2], the “agonist activity” value is listed as “complete loss of activity” and the pEC50 is < 5.00.

As to GBAP-f7 [Peptide 4], in experiment [2], the pEC50 is 8.30.

As to GBAP-s3 [Peptide 12], in experiment [2], the pEC50 was 7.35.

The values are drawn from article PMC6150820 (ACS chemical biology, 2018).
